According to US20240026037A1 (Memorial Sloan Kettering, published 2024):

T1: Human GPA33 on GPA33+ colorectal cancer cell lines (Colo 205, LS 174T, SW 1222) (human, UniProt Q99795 22-319)
T1 construct: Endogenous GPA33 on human colorectal cancer cell lines; also called surface human GPA33; GPA33+ tumor cell lines
T1 sequence: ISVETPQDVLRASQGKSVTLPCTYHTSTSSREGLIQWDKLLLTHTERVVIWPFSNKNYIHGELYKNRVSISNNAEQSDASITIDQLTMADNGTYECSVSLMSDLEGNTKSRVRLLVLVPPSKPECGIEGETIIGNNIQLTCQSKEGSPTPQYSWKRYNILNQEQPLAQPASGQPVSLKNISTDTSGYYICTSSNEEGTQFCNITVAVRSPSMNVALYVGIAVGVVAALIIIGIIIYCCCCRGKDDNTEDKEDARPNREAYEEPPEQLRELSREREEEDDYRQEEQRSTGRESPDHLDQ

T2: Human GPA33 (recombinant protein, Novoprotein) (human, UniProt Q99795 22-235)
T2 construct: Bought recombinant protein immobilized on a CM5 chip; also called GPA33 antigen; tumor antigen GPA33
T2 sequence: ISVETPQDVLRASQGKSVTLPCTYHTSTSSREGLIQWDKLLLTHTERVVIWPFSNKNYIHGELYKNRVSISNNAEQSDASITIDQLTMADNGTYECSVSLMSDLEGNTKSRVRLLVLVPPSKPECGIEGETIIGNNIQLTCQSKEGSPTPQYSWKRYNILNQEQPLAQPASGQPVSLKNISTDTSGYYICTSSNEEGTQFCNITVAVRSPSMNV

B1: TC171 (bispecific antibody)
chain: DIQMTQSPSSLSASVGDRVTITCKASQNVRTVVAWYQQKPGKAPKTLIYLASNRHTGVPSRFSGSGSGTEFTLTISNLQPEDFATYYCLQHWSYPLTFGSGTKLEVKRGGGGSGGGGSGGGGSGGGGSGGGGSGGGGSEVQLVESGGGLVKPGGSLRLSCAASGFAFSTYDMSWVRQAPGKGLEWVSTISSGGSYTYYADSVKGRFTISRDNAKNSLYLQMNSLRAEDTAVYYCAPTTVVPFAYWGQGTLVTVSAGGGGSGGGGSGGGGSGGGGSHVQLVESGGGLVQPGGSLRLSCAASGFSLTDYGVHWVRQAPGKGLEWLGVIWSGGGTAYNTALISRFTISRDNSKNTLYLQMNSLRAEDTAVYYCARRGSYPYNYFDAWGCGTLVTVSSGGGGSGGGGSGGGGSGGGGSGGGGSGGGGSQAVVTQEPSLTVSPGGTVTLTCGSSTGAVTASNYANWVQQKPGQCPRGLIGGHNNRPPGVPARFSGSLLGGKAALTLLGAQPEDEAEYYCALWYSDHWVIGGGTKLTVLGTPLGDTTHTSGKPLDGEYFTLQIRGRERFEMFRELNEALELKDAQAGKEPGGSGGAPHHHHHH
notes: As TC170, with the other VH/VL orientation of the anti-GPA33 scFv; Carries the p53 SADA (tetramerization) domain; also called GPA33xDOTA SADA
B2: TC170 (bispecific antibody)
chain: EVQLVESGGGLVKPGGSLRLSCAASGFAFSTYDMSWVRQAPGKGLEWVSTISSGGSYTYYADSVKGRFTISRDNAKNSLYLQMNSLRAEDTAVYYCAPTTVVPFAYWGQGTLVTVSAGGGGSGGGGSGGGGSGGGGSGGGGSGGGGSDIQMTQSPSSLSASVGDRVTITCKASQNVRTVVAWYQQKPGKAPKTLIYLASNRHTGVPSRFSGSGSGTEFTLTISNLQPEDFATYYCLQHWSYPLTFGSGTKLEVKRGGGGSGGGGSGGGGSGGGGSHVQLVESGGGLVQPGGSLRLSCAASGFSLTDYGVHWVRQAPGKGLEWLGVIWSGGGTAYNTALISRFTISRDNSKNTLYLQMNSLRAEDTAVYYCARRGSYPYNYFDAWGCGTLVTVSSGGGGSGGGGSGGGGSGGGGSGGGGSGGGGSQAVVTQEPSLTVSPGGTVTLTCGSSTGAVTASNYANWVQQKPGQCPRGLIGGHNNRPPGVPARFSGSLLGGKAALTLLGAQPEDEAEYYCALWYSDHWVIGGGTKLTVLGTPLGDTTHTSGKPLDGEYFTLQIRGRERFEMFRELNEALELKDAQAGKEPGGSGGAPHHHHHH
notes: Single chain: anti-GPA33 scFv, anti-DOTA (C825) scFv, p53 SADA domain; The copy number 4 comes from the p53 tetramerization domain; the self-assembling and disassembling state depends on concentration; also called GPA33 SADA (TC170); GPA33xDOTA SADA

Experiments:
[1] = molecular target: T1, Human GPA33 on GPA33+ colorectal cancer …; experiment: FACS binding to SW1222 cells (GPA33+)
[2] = molecular target: T1, Human GPA33 on GPA33+ colorectal cancer …; experiment: FACS binding to SW1222 cells (GPA33+); the text prints 1.78 nM for this pair
[3] = molecular target: T1, Human GPA33 on GPA33+ colorectal cancer …; experiment: FACS titration on SW1222 cells, geometric mean MFI (the text prints 1.78 nM and calls it IC50) [Cont.]
[4] = molecular target: T2, Human GPA33 (recombinant protein, …); experiment: SPR (Biacore), human GPA33 immobilized on CM5 chip, two-state fit
Protocol: (§1) SPR analysis. Human GPA33 (Novoprotein, Summit, NJ) was immobilized on CM5 chips. Five concentrations of 2-fold serially diluted huA33 IgG1 or huA33-BsAbs (starting at 20 nM) were flowed over the chip using a Biacore™ T100 system (GE Healthcare, Chicago, IL). Binding kinetics of huA33 were measured at 25° C. and binding kinetics of huA33-BsAbs were measured at both 25° C. and 37° C. The sensorgrams were fitted with two state binding model for both to derive kinetic parameters.

[5] = molecular target: T1, Human GPA33 on GPA33+ colorectal cancer …; experiment: flow cytometry, LS 174T cells
[6] = molecular target: T1, Human GPA33 on GPA33+ colorectal cancer …; experiment: FACS binding to Colo205 cells (GPA33+)
[7] = molecular target: T1, Human GPA33 on GPA33+ colorectal cancer …; experiment: flow cytometry, Colo 205 cells; Colo 205 cells
[8] = molecular target: T2, Human GPA33 (recombinant protein, …); experiment: SPR (Biacore), human GPA33 immobilized on CM5 chip, two-state fit, kd1
How it was run: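 Kinetic parameters, including the off-rate (kd1), were obtained by fitting surface plasmon resonance sensorgrams to a two-state binding model. On a Biacore T100 with recombinant human GPA33 immobilised on a CM5 chip, antibodies were passed over at five 2-fold serial dilutions from 20 nM. Runs used 25° C for the parent IgG1, and 25° C and 37° C for the bispecific formats.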

[9] = molecular target: T1, Human GPA33 on GPA33+ colorectal cancer …; experiment: FACS titration on SW1222 cells, geometric mean MFI (same value as in FIG. 4A; the text prints 1.78 nM) [contd.]
[10] = molecular target: T1, Human GPA33 on GPA33+ colorectal cancer …; experiment: FACS binding to LS174T cells (GPA33+)
[11] = molecular target: T2, Human GPA33 (recombinant protein, …); experiment: SPR (Biacore), human GPA33 immobilised on the chip; KD relative to that of TC170
How it was run: (§2)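 Affinity (KD) was measured by surface plasmon resonance on a Biacore system, with recombinant human GPA33 (Novoprotein) immobilised on a CM5 sensor chip. Antibodies were injected at five concentrations, 2-fold serial dilutions starting at 20 nM. The sensorgrams were fitted kinetically to give rate constants and KD. Each KD is given as a ratio to the KD of a reference molecule.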

[12] = molecular target: T2, Human GPA33 (recombinant protein, …); experiment: SPR (Biacore), human GPA33 immobilized on CM5 chip, two-state fit, ka1
Protocol: as §1

[13] = molecular target: T1, Human GPA33 on GPA33+ colorectal cancer …; experiment: flow cytometry, SW 1222 cells
[14] = molecular target: T1, Human GPA33 on GPA33+ colorectal cancer …; experiment: FACS binding to LS174T cells (GPA33+); reference row
[15] = molecular target: T2, Human GPA33 (recombinant protein, …); experiment: SPR (Biacore), human GPA33 immobilised on the chip; reference row
How it was run: as §2

[16] = molecular target: T1, Human GPA33 on GPA33+ colorectal cancer …; experiment: FACS binding to Colo205 cells (GPA33+); reference row
[17] = molecular target: T1, Human GPA33 on GPA33+ colorectal cancer …; experiment: FACS binding to SW1222 cells (GPA33+); reference row
[18] = molecular target: T1, Human GPA33 on GPA33+ colorectal cancer …; experiment: FACS titration on Colo205 cells, geometric mean MFI (the text prints 0.74 nM and calls it IC50)
[19] = molecular target: T1, Human GPA33 on GPA33+ colorectal cancer …; experiment: FACS titration on Colo205 cells, geometric mean MFI (same value as in FIG. 4A; the text prints 0.74 nM)

| Binder | Kd [4] | ka2 [4] | kd2 [4] | IC50 [5] | EC50 [7] | koff [8] | kon [12] | IC50 [13] | other results |
| --- | --- | --- | --- | --- | --- | --- | --- | --- | --- |
| B1 | 0.023 nM | 0.00663 s⁻¹ | 0.000628 s⁻¹ | 0.56 nM | 1.04 nM | 0.000886 s⁻¹ | 3.34e+06 M⁻¹ s⁻¹ | 1.78 nM | fold change of binding EC50 (relative to TC170, lower is better) [1]: 1.07; EC50 [2]: 1.77 nM; EC50 [3]: 0.77 nM; fold change of binding EC50 (relative to TC170, lower is better) [6]: 1.41; EC50 [9]: 0.77 nM; fold change of binding EC50 (relative to TC170, lower is better) [10]: 1.81; Fold change of KD (relative to TC170, lower is better) [11]: 1.5 |
| B2 | 0.0158 nM | 0.00646 s⁻¹ | 0.000538 s⁻¹ | 0.31 nM | 0.74 nM | 0.000728 s⁻¹ | 3.54e+06 M⁻¹ s⁻¹ | 1.65 nM | fold change of binding EC50 (relative to TC170, lower is better) [14]: 1; Fold change of KD (relative to TC170, lower is better) [15]: 1; fold change of binding EC50 (relative to TC170, lower is better) [16]: 1; fold change of binding EC50 (relative to TC170, lower is better) [17]: 1; EC50 [18]: 0.73 nM; EC50 [19]: 0.73 nM |
